Common to all, as to test: cell_activity; attB x attP EGFP inversion reporter, HEK293FT
For one data set, the target named is T1, Int27 (Lactococcus lactis subsp. lactis CV56).
T1 chain: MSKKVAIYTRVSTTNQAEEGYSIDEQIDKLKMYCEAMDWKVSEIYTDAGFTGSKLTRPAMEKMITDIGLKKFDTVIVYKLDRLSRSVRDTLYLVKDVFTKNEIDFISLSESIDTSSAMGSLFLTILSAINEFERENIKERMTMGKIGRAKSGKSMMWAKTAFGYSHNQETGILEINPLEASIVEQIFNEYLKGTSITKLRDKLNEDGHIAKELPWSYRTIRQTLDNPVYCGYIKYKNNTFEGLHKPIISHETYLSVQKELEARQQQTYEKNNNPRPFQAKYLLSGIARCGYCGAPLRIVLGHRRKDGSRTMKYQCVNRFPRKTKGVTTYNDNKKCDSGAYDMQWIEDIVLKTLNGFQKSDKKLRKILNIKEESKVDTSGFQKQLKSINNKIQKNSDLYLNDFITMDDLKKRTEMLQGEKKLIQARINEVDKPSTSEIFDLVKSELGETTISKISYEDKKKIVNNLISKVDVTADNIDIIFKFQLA
The note with it: tags: C-terminal GS linker-SV40 NLS.

Another data set addresses T2, Int34 (Staphylococcus lugdunensis HKU09-01).
T2 chain: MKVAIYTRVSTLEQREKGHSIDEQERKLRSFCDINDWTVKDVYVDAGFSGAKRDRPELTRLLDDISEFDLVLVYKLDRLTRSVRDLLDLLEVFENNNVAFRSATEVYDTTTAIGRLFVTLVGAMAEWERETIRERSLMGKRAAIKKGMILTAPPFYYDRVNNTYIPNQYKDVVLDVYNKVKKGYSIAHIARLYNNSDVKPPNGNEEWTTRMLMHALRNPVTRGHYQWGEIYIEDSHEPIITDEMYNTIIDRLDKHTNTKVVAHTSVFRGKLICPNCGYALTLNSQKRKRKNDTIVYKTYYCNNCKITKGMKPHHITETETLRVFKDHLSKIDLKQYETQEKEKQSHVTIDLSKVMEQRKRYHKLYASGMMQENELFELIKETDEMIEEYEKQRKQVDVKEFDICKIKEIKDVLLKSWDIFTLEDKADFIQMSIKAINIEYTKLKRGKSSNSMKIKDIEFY
The note with it: tags: C-terminal GS linker-SV40 NLS; chain copies: 4.

In a further data set the target is T3, Int7 (Geobacillus sp. Y412MC61).
T3 chain: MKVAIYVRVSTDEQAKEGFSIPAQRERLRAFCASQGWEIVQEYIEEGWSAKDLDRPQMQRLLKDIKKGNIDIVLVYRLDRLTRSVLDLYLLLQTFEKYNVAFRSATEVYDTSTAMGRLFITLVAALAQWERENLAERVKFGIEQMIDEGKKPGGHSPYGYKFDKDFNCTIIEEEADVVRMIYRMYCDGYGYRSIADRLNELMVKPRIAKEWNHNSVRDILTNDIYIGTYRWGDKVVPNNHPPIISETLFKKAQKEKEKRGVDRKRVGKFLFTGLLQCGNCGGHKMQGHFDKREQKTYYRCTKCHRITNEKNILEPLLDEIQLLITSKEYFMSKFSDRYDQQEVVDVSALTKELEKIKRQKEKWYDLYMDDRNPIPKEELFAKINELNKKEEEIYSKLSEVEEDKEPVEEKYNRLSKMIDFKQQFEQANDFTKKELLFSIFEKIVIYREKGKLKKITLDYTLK
The note with it: tags: C-terminal GS linker-SV40 NLS.

Binding signal data for five molecules are collected here from patent US20240409906, “INTEGRASES, LANDING PAD ARCHITECTURES, AND ENGINEERED CELLS COMPRISING THE SAME” (Asimov Inc., published 2024).

B1: Int27 attB (dsDNA)
DNA 1: AATACTAATAATAGCTAGTACAATTAACATCTCTATCAAAGTAAAAGCTTTTAGCTCTTTCT
DNA 2: AGAAAGAGCTAAAAGCTTTTACTTTGATAGAGATGTTAATTGTACTAGCTATTATTAGTATT
Regarding B1, in the data set with Int27, the binding signal was 2.2 fraction of Bxb1.

B2: Int34 attB (dsDNA)
DNA 1: AATCTGCAAACATGTATGGCGGTACATGTATCAACATTGGTTGTATTCCTACAAAGACACTCAT
DNA 2: ATGAGTGTCTTTGTAGGAATACAACCAATGTTGATACATGTACCGCCATACATGTTTGCAGATT
On to B2, for which, in the data set with Int34, the binding signal was 0.408 fraction of Bxb1.

B3: Int34 attP (dsDNA)
DNA 1: ATTTTTGTACGGAAGTAGATACTATCTTTCAATATCCATGTTACTTAGTGCCATACAAAAA
DNA 2: TTTTTGTATGGCACTAAGTAACATGGATATTGAAAGATAGTATCTACTTCCGTACAAAAAT
Consider B3, for which the binding signal with Int34 is 0.408 fraction of Bxb1.

B4: Int7 attP (dsDNA)
DNA 1: GTGTTATAAACCTGTGTGAGAGTTAAGTTTACATGCCTAACCTTAACTTTTACGCAGGTTCAGCTT
DNA 2: AAGCTGAACCTGCGTAAAAGTTAAGGTTAGGCATGTAAACTTAACTCTCACACAGGTTTATAACAC
Take B4: the binding signal with Int7 is 0.096 fraction of Bxb1.

B5: Int7 attB (dsDNA)
DNA 1: AGACGAGAAACGTTCCGTCCGTCTGGGTCAGTTGGGCAAAGTTGATGACCGGGTCGTCCGTT
DNA 2: AACGGACGACCCGGTCATCAACTTTGCCCAACTGACCCAGACGGACGGAACGTTTCTCGTCT
Regarding B5, in the data set with Int7, the binding signal is 0.096 fraction of Bxb1.
